Measured values: US11332512B2, “Peptides and combination of peptides for use in immunotherapy against various tumors” (Immatics Biotechnologies GmbH, priority 2015, dated 2022)

Molecular target: HLA-A*02:01 (Homo sapiens, UniProt P04439, D140Y/D185E/D98H/E176V/E277Q/G131W/G231S/I119V/I121R/I166T/I218V/L300P/L318F/N151K/N90K/P208A/P217A/Q86G/Q94H/R138H/R169H/T345S)
Assay: MHC binding assay: UV-ligand exchange with beta2m ELISA (peptide exchange yield)
Conditions: binding to HLA-A*02:01, β2m ELISA
From the text: Candidate peptides for T cell based therapies according to the present invention were further tested for their MHC binding capacity (affinity). The individual peptide-MHC complexes were produced by UV-ligand exchange, where a UV-sensitive peptide is cleaved upon UV-irradiation, and exchanged with the peptide of interest as analyzed. Only peptide candidates that can effectively bind and stabilize the peptide-receptive MHC molecules prevent dissociation of the MHC complexes. To determine the yield of the exchange reaction, an ELISA was performed based on the detection of the light chain (β2m) of stabilized MHC complexes. The assay was performed as generally described in Rodenko et al. (Rodenko et al., 2006).
96 well MAXISorp plates (NUNC) were coated over night with 2 ug/ml streptavidin in PBS at room temperature, washed 4× and blocked for 1 h at 37° C. in 2% BSA containing blocking buffer. Refolded HLA-A*02:01/MLA-001 monomers served as standards, covering the range of 15-500 ng/ml. Peptide-MHC monomers of the UV-exchange reaction were diluted 100 fold in blocking buffer. Samples were incubated for 1 h at 37° C., washed four times, incubated with 2 ug/ml HRP conjugated anti-β2m for 1 h at 37° C., washed again and detected with TMB solution that is stopped with […]. Absorption was measured at 450 nm. Candidate peptides that show a high exchange yield (preferably higher than 50%, most preferred higher than 75%) are generally preferred for a generation and production of antibodies or fragments thereof, and/or T cell receptors or fragments thereof, as they show sufficient avidity to the MHC molecules and prevent dissociation of the MHC complexes.

Row | Substance | Peptide exchange (MHC class I binding score, peptide exchange yield)
1 | 139 (IILENIQSL; listed as Homo sapiens) [compound 139] | +++ (= ≥50% = +++)
2 | 140 (FLDSQITTV; listed as Homo sapiens) [compound 140] | +++ (= ≥50% = +++)
3 | 143 (MLWESIMRV; listed as Homo sapiens) [compound 143] | +++ (= ≥50% = +++)
4 | 144 (FLISQTPLL; listed as Homo sapiens) [compound 144] | +++ (= ≥50% = +++)
5 | 145 (ALEEKLENV; listed as Homo sapiens) [compound 145] | +++ (= ≥50% = +++)
6 | 147 (GLLSALENV; listed as Homo sapiens) [compound 147] | +++ (= ≥50% = +++)
7 | 148 (YLILSSHQL; listed as Homo sapiens) [compound 148] | +++ (= ≥50% = +++)
8 | 150 (VLLDMVHSL; listed as Homo sapiens) [compound 150] | +++ (= ≥50% = +++)
9 | 153 (KLVELEHTL; listed as Homo sapiens) [compound 153] | +++ (= ≥50% = +++)
10 | 158 (YLDPLWHQL; listed as Homo sapiens) [compound 158] | +++ (= ≥50% = +++)
11 | 159 (QLGPVPVTI; listed as Homo sapiens) [compound 159] | +++ (= ≥50% = +++)
12 | 160 (TLQEWLTEV; listed as Homo sapiens) [compound 160] | +++ (= ≥50% = +++)
13 | 162 (GLLGNLLTSL; listed as Homo sapiens) [compound 162] | +++ (= ≥50% = +++)
14 | 164 (MLIIRVPSV; listed as Homo sapiens) [compound 164] | +++ (= ≥50% = +++)
15 | 165 (SLLDYEVSI; listed as Homo sapiens) [compound 165] | +++ (= ≥50% = +++)
16 | 166 (LLGDSSFFL; listed as Homo sapiens) [compound 166] | +++ (= ≥50% = +++)
17 | 167 (LVVDEGSLVSV; listed as Homo sapiens) [compound 167] | +++ (= ≥50% = +++)
18 | 168 (VIFEGEPMYL; listed as Homo sapiens) [compound 168] | +++ (= ≥50% = +++)
19 | 169 (ALADLSVAV; listed as Homo sapiens) [compound 169] | +++ (= ≥50% = +++)

Row | Substance | Peptide exchange (MHC class I binding score, peptide exchange yield)
20 | 173 (RLIDIYKNV; listed as Homo sapiens) [compound 173] | +++ (= ≥50% = +++)
21 | 175 (SLLDLVQSL; listed as Homo sapiens) [compound 175] | +++ (= ≥50% = +++)
22 | 177 (ALINVLNAL; listed as Homo sapiens) [compound 177] | +++ (= ≥50% = +++)
23 | 179 (TLGEIIKGV; listed as Homo sapiens) [compound 179] | +++ (= ≥50% = +++)
24 | 180 (RLYEEEIRI; listed as Homo sapiens) [compound 180] | +++ (= ≥50% = +++)
25 | 181 (LLWAPTAQA; listed as Homo sapiens) [compound 181] | +++ (= ≥50% = +++)
26 | 182 (GLQDGFQITV; listed as Homo sapiens) [compound 182] | +++ (= ≥50% = +++)
27 | 183 (ALSYILPYL; listed as Homo sapiens) [compound 183] | +++ (= ≥50% = +++)
28 | 190 (SLSTELFKV; listed as Homo sapiens) [compound 190] | +++ (= ≥50% = +++)
29 | 191 (AAIEIFEKV; listed as Homo sapiens) [compound 191] | +++ (= ≥50% = +++)
30 | 193 (ALFHMNILL; listed as Homo sapiens) [compound 193] | +++ (= ≥50% = +++)
31 | 195 (VIIQNLPAL; listed as Homo sapiens) [compound 195] | +++ (= ≥50% = +++)
32 | 200 (IMPTFDLTKV; listed as Homo sapiens) [compound 200] | +++ (= ≥50% = +++)
33 | 204 (SEWGSPHAAVP; listed as Homo sapiens) [compound 204] | +++ (= ≥50% = +++)
34 | 207 (KLFETVEEL; listed as Homo sapiens) [compound 207] | +++ (= ≥50% = +++)
35 | 210 (GLAGDNIYL; listed as Homo sapiens) [compound 210] | +++ (= ≥50% = +++)
36 | 211 (LLTTVLINA; listed as Homo sapiens) [compound 211] | +++ (= ≥50% = +++)
37 | 213 (ILAVDGVLSV; listed as Homo sapiens) [compound 213] | +++ (= ≥50% = +++)
38 | 214 (ALFETLIQL; listed as Homo sapiens) [compound 214] | +++ (= ≥50% = +++)

Row | Substance | Peptide exchange (MHC class I binding score, peptide exchange yield)
39 | 217 (LLWPSSVPA; listed as Homo sapiens) [compound 217] | +++ (= ≥50% = +++)
40 | 218 (SLTGANITV; listed as Homo sapiens) [compound 218] | +++ (= ≥50% = +++)
41 | 220 (ALSELERVL; listed as Homo sapiens) [compound 220] | +++ (= ≥50% = +++)
42 | 223 (ALHPVQFYL; listed as Homo sapiens) [compound 223] | +++ (= ≥50% = +++)
43 | 224 (LLFDWSGTGRADA; listed as Homo sapiens) [compound 224] | +++ (= ≥50% = +++)
44 | 225 (FLPQPVPLSV; listed as Homo sapiens) [compound 225] | +++ (= ≥50% = +++)
45 | 226 (SLAGNLQEL; listed as Homo sapiens) [compound 226] | +++ (= ≥50% = +++)
46 | 228 (SLLELDGINLRL; listed as Homo sapiens) [compound 228] | +++ (= ≥50% = +++)
47 | 230 (KLLNMIFSI; listed as Homo sapiens) [compound 230] | +++ (= ≥50% = +++)
48 | 231 (LLDDIFIRL; listed as Homo sapiens) [compound 231] | +++ (= ≥50% = +++)
49 | 237 (ALLEQTGDMSL; listed as Homo sapiens) [compound 237] | +++ (= ≥50% = +++)
50 | 239 (VIIKGLEEITV; listed as Homo sapiens) [compound 239] | +++ (= ≥50% = +++)
51 | 241 (KQFEGTVEI; listed as Homo sapiens) [compound 241] | +++ (= ≥50% = +++)
52 | 244 (NVAEIVIHI; listed as Homo sapiens) [compound 244] | +++ (= ≥50% = +++)
53 | 248 (VLMQDSRLYL; listed as Homo sapiens) [compound 248] | +++ (= ≥50% = +++)
54 | 249 (YLYQILQGI; listed as Homo sapiens) [compound 249] | +++ (= ≥50% = +++)
55 | 250 (LMQDSRLYL; listed as Homo sapiens) [compound 250] | +++ (= ≥50% = +++)
56 | 251 (LLWGNLPEI; listed as Homo sapiens) [compound 251] | +++ (= ≥50% = +++)
